# Data: PMC10570040 (Nucleic Acids Research, 2023)
# How the values were obtained:
# [1] = biological target: the molecule itself; test: AUC; sedimentation velocity, 42,000 rpm, 20°C, absorbance at 280 nm, analysed with SEDFIT
# [2] = biological target: the molecule itself; test: crystal structure; microbatch under oil at 22°C; space group P4(3)2(1)2, two monomers in the asymmetric unit
Protein,stoichiometry N [1],binding result [2]
"TON_1525 ('eighth note' fold regulator, EnfR), wild-type (natural protein, Thermococcus onnurineus NA1, UniProt B6YTS4 1-146, looked up, Synthetic gene in pET24a(+) with an in-frame non-cleavable C-terminal His6-tag; also called WT; wild-type EnfR; source: E. coli Rosetta (DE3), purified (75°C heat step, Ni-NTA, Superdex 75); not shown: His6, C-terminal, kept) MGSKSFLTEQQIKILRLRARGLKQSEIAELLGTSRANISILERRALEKIEKARNTITIWEQINSKISVEVRKGEDIFTVPDKLFKKADELQIKVPYSTAEIIAFLVEHAPISDRIAKRDFTLFLDARDRLRISECLLEEFDEIGKQ",2,
"EnfR (TON_1525) T55I mutant (natural protein, Thermococcus onnurineus NA1, UniProt B6YTS4 1-146, looked up, TON_1525 (EnfR) of Thermococcus onnurineus NA1, residues 1-146, with T55I; The T55I change first arose in an adaptive laboratory evolution (strain 156T / MC11); here made by site-directed mutagenesis; source: E. coli Rosetta (DE3), purified (75°C heat step, Ni-NTA, Superdex 75); not shown: His6, C-terminal, kept) MGSKSFLTEQQIKILRLRARGLKQSEIAELLGTSRANISILERRALEKIEKARNIITIWEQINSKISVEVRKGEDIFTVPDKLFKKADELQIKVPYSTAEIIAFLVEHAPISDRIAKRDFTLFLDARDRLRISECLLEEFDEIGKQ",,binds
"EnfR R35A mutant (natural protein, Thermococcus onnurineus NA1, UniProt B6YTS4 1-146, looked up, TON_1525 (EnfR) of Thermococcus onnurineus NA1, residues 1-146, with R35A; source: E. coli, purified by the same procedure as the wild-type; not shown: His6, C-terminal, kept) MGSKSFLTEQQIKILRLRARGLKQSEIAELLGTSAANISILERRALEKIEKARNTITIWEQINSKISVEVRKGEDIFTVPDKLFKKADELQIKVPYSTAEIIAFLVEHAPISDRIAKRDFTLFLDARDRLRISECLLEEFDEIGKQ",2,
"EnfR R43A mutant (natural protein, Thermococcus onnurineus NA1, UniProt B6YTS4 1-146, looked up, TON_1525 (EnfR) of Thermococcus onnurineus NA1, residues 1-146, with R43A; source: E. coli, purified by the same procedure as the wild-type; not shown: His6, C-terminal, kept) MGSKSFLTEQQIKILRLRARGLKQSEIAELLGTSRANISILEARALEKIEKARNTITIWEQINSKISVEVRKGEDIFTVPDKLFKKADELQIKVPYSTAEIIAFLVEHAPISDRIAKRDFTLFLDARDRLRISECLLEEFDEIGKQ",2,
"EnfR R44A mutant (natural protein, Thermococcus onnurineus NA1, UniProt B6YTS4 1-146, looked up, TON_1525 (EnfR) of Thermococcus onnurineus NA1, residues 1-146, with R44A; source: E. coli, purified by the same procedure as the wild-type; not shown: His6, C-terminal, kept) MGSKSFLTEQQIKILRLRARGLKQSEIAELLGTSRANISILERAALEKIEKARNTITIWEQINSKISVEVRKGEDIFTVPDKLFKKADELQIKVPYSTAEIIAFLVEHAPISDRIAKRDFTLFLDARDRLRISECLLEEFDEIGKQ",2,
"EnfR mutant with N-terminal six residues deleted (ΔN^1–6) (domain or fragment, Thermococcus onnurineus NA1, UniProt B6YTS4 7-146, looked up, TON_1525 (EnfR) of Thermococcus onnurineus NA1, residues 1-146 without the N-terminal six residues (N-6 region, residues 1-6); The limits 7-146 follow from the printed deletion of residues 1-6 of the 1-146 construct; also called mutant with the N-6 region deleted; source: E. coli, purified by the same procedure as the wild-type; not shown: His6, C-terminal, kept) LTEQQIKILRLRARGLKQSEIAELLGTSRANISILERRALEKIEKARNTITIWEQINSKISVEVRKGEDIFTVPDKLFKKADELQIKVPYSTAEIIAFLVEHAPISDRIAKRDFTLFLDARDRLRISECLLEEFDEIGKQ",2,
